Article PMC2645937
Blank lines part the entries; values can stand above or below the molecule they belong to.

Legend:
[1] = molecular target: E. coli ribonucleotide reductase large subunit α2 (E. coli) (UniProt P00452); assay: cross-linking
[2] = molecular target: ribonucleotide reductase β2 (Escherichia coli) (UniProt P69924); settings: cited from earlier work
[3] = molecular target: DAN-β2(V351C): (His)6-β2-C268S/C305S/V351C labelled with dimethylaminonaphthalene (E. coli); assay: other fluorescence titration

percent cross-linked [1]: 19%
Molecule: BP-β2(V365C): (His)6-β2-C268S/C305S/V365C labelled with benzophenone (enzyme)

percent cross-linked [1]: 9%
Molecule: BP-β2(Y356C): (His)6-β2-C268S/C305S/Y356C labelled with benzophenone (enzyme)

Molecule: ribonucleotide reductase α2 (from UniProt P00452)
Kd [2]: 200 nM

Kd [3]: 380 nM
B1: E. coli ribonucleotide reductase large subunit α2 (enzyme)
chain: MNQNLLVTKRDGSTERINLDKIHRVLDWAAEGLHNVSISQVELRSHIQFYDGIKTSDIHETIIKAAADLISRDAPDYQYLAARLAIFHLRKKAYGQFEPPALYDHVVKMVEMGKYDNHLLEDYTEEEFKQMDTFIDHDRDMTFSYAAVKQLEGKYLVQNRVTGEIYESAQFLYILVAACLFSNYPRETRLQYVKRFYDAVSTFKISLPTPIMSGVRTPTRQFSSCVLIECGDSLDSINATSSAIVKYVSQRAGIGINAGRIRALGSPIRGGEAFHTGCIPFYKHFQTAVKSCSQGGVRGGAATLFYPMWHLEVESLLVLKNNRGVEGNRVRHMDYGVQINKLMYTRLLKGEDITLFSPSDVPGLYDAFFADQEEFERLYTKYEKDDSIRKQRVKAVELFSLMMQERASTGRIYIQNVDHCNTHSPFDPAIAPVRQSNLCLEIALPTKPLNDVNDENGEIALCTLSAFNLGAINNLDELEELAILAVRALDALLDYQDYPIPAAKRGAMGRRTLGIGVINFAYYLAKHGKRYSDGSANNLTHKTFEAIQYYLLKASNELAKEQGACPWFNETTYAKGILPIDTYKKDLDTIANEPLHYDWEALRESIKTHGLRNSTLSALMPSETSSQISNATNGIEPPRGYVSIKASKDGILRQVVPDYEHLHDAYELLWEMPGNDGYLQLVGIMQKFIDQSISANTNYDPSRFPSGKVPMQQLLKDLLTAYKFGVKTLYYQNTRDGAEDAQDDLVPSIQDDGCESGACKI
